In the test the target is T1, 5FV2 soluble VH domain targeting human VEGF (human).
T1 construct: also called anti-hVEGF VH domain; phage-derived VH domain 5FV2
Put plainly: SPR. Conditions: both partners purified.

T1 sequence (heavy, as listed by the source): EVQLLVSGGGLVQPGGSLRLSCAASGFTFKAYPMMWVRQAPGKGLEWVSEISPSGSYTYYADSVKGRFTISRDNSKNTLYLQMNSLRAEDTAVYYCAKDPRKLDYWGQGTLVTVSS

B1: human vascular endothelial growth factor (VEGF) (ligand, UniProt P15692 1-395, looked up)
chain: APMAEGGGQNHHEVVKFMDVYQRSYCHPIETLVDIFQEYPDEIEYIFKPSCVPLMRCGGCCNDEGLECVPTEESNITMQIMRIKPHQGQHIGEMSFLQHNKCECRPKKDRARQENPCGPCSERRKHLFVQDPQTCKCSCKNTDSRCKARQLELNERTCRCDKPRR
notes: also called hVEGF; human VEGF; source: commercially available antigen
As usually defined, the Kd is the constant that tells how readily two partners part at equilibrium. A high value points to lower affinity. Broadly, the kon is the second-order rate constant of association. Lower therefore signals slower complex formation. B1: the Kd stood at 3 nM and the kon is 730000 M⁻¹ s⁻¹.
